Data taken from patent US7927864B2, “Methods, kits, and compositions for detecting enzyme activity” (Wake Forest University Health Sciences, priority 2006, dated 2011).

Assays:
ADAMTS13 [1] = test: FRET measurement of ADAMTS13 cleavage of fluorescein-labeled recombinant VWF73 peptide in plasma; format: biochemical
Description: (§1) The working peptide was prepared by dissolving the peptide pellets in DMSO and then diluted with assay buffer, 5 mM Bis-Tris, 25 mM CaCl2, 0.005% Tween 20 at pH 6.0 to a final concentration of 4.5 μM. Pooled Normal Plasma (PNP) was used as a source of ADAMTS13. Heat inactivated PNP, heated overnight at 56° C., and known ADAMTS13-deficient patient plasma were used as negative controls. All samples were diluted 1 in 8 with assay buffer to reduce the ionic strength. Reactions were carried out in 96 well plates using 100 μL of dilute plasma and 100 μL of working peptide solution. The rate of fluorescence increase with time was monitored by a fluorometer.
(§2) FIG. 2 depicts fluorescence of the recombinant peptide during incubation. […] Each experiment was performed in triplicate and mean values are shown. Thus, it is apparent that the fluorescence increase resulting from the separation of fluors by ADAMTS13 cleavage of a labeled peptide substrate is measurable and can be used for FRET based enzyme assays.
(§3) FIG. 3 depicts the rates of change of fluorescence produced by dilutions of PNP in heat inactivated PNP. Undiluted PNP represents 100% ADAMTS13 enzyme activity for purposes of determining quantitative enzyme activity. Each point represents the mean±SEM of triplicate determination. Thus, it is apparent that recombinant fluorescein labeled peptides can be used as effective substrates in quantitative FRET based assays of ADAMTS13. Further techniques for quantitative analysis of enzyme activity are well known to skilled artisans.

ADAMTS13 [2] = biological target: T1, ADAMTS13 (Homo sapiens, UniProt Q76LX8); test: as above; format: biochemical; settings: incubation with pooled normal plasma (PNP) as source of ADAMTS13; peptide 4.5 μM working solution, plasma diluted 1 in 8, pH 6.0
T1 construct: Pooled Normal Plasma (PNP) was used as a source of ADAMTS13; from tissue; host or cells: pooled normal plasma (PNP); the substrate peptide was made in M15 E. coli
T1 sequence (Q76LX8 75-1427): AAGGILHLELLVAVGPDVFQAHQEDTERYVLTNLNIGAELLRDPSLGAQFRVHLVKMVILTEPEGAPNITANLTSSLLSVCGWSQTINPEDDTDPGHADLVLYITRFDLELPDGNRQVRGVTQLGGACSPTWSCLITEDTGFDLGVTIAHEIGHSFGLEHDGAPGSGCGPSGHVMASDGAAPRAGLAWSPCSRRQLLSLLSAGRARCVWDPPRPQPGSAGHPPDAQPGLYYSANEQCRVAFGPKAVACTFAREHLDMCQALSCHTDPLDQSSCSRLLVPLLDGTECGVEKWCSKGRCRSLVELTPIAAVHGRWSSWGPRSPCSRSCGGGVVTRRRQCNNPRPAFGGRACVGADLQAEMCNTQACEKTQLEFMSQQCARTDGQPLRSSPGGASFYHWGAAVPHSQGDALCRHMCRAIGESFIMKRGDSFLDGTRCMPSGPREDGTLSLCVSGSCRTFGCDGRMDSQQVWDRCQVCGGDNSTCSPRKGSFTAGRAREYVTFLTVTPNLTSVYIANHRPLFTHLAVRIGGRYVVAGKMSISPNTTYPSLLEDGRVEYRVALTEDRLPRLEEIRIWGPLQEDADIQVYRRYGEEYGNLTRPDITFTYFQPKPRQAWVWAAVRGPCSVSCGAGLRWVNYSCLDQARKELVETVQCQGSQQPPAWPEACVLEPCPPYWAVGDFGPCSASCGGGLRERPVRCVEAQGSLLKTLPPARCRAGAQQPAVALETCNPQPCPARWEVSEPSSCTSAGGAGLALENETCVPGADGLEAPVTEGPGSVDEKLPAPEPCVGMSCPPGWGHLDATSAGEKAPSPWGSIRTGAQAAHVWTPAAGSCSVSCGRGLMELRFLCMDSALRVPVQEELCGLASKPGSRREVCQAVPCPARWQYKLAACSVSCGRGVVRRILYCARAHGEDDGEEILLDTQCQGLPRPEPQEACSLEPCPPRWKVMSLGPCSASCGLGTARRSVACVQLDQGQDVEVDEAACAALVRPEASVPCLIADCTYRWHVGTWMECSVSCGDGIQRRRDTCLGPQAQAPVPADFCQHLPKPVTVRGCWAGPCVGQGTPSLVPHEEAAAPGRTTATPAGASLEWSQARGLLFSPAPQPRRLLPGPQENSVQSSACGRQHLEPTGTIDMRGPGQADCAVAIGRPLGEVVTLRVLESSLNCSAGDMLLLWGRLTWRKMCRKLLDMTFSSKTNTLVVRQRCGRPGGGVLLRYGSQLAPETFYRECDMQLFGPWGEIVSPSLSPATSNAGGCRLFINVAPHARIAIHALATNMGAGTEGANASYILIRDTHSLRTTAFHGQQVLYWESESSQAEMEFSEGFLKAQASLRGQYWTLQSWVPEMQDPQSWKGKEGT
Description: as §1, §2, §3

B1: recombinant peptide: Recombinant His-tagged 73 amino acid VWF A2 peptide (SEQ ID NO: 1); Q1599 and P1611 mutated to cysteines, both labeled with fluorescein (conjugate)
chain: DRECAPNLVYMVTGNCASDEIKRLPGDIQVVPIGVGPNANVQELERIGWPNAPILIQDFETLPREAPDLVLQR
modifications: fluorescein labels on cysteines; His-tag; This is a 73 amino acid fragment of native von Willebrand factor, substituted with cysteines at positions 4 and 16.
notes: Q1599 and P1611 mutated to cysteines, both labeled with fluorescein
fluorescence of the recombinant peptide during incubation (ADAMTS13 [1]; incubation with heat inactivated PNP (negative control)): only minimal change in fluorescence | fluorescence of the recombinant peptide during incubation (ADAMTS13 [1]; incubation with plasma samples from TTP patients with no ADAMTS13 activity (negative control)): only minimal change in fluorescence | fluorescence of the recombinant peptide during incubation (ADAMTS13 [2]): steady increase of fluorescence over time
